Measurements reported in publication PMC4643876, “Picomolar Inhibition of Plasmepsin V, an Essential Malaria Protease, Achieved Exploiting the Prime Region” (PLoS ONE, 2015).
Read-outs that look alike come from different tables or passages of the source. Ends that are not written are not given here. * marks the point of attachment. Biotin = O=C1N[C@H]2[C@H](CS[C@H]2CCCCC(=O)*)N1; Octanoyl = CCCCCCCC(=O)*; GABA = NCCCC(=O)O

Key:
[1] = target: GFP-tagged Plasmepsin V (PmV-GFP), P. falciparum clone DC6 (Plasmodium falciparum)
Sequence of GFP-tagged Plasmepsin V (PmV-GFP), P. falciparum clone DC6 (Plasmodium falciparum) (Q8I6Z5 whole entry): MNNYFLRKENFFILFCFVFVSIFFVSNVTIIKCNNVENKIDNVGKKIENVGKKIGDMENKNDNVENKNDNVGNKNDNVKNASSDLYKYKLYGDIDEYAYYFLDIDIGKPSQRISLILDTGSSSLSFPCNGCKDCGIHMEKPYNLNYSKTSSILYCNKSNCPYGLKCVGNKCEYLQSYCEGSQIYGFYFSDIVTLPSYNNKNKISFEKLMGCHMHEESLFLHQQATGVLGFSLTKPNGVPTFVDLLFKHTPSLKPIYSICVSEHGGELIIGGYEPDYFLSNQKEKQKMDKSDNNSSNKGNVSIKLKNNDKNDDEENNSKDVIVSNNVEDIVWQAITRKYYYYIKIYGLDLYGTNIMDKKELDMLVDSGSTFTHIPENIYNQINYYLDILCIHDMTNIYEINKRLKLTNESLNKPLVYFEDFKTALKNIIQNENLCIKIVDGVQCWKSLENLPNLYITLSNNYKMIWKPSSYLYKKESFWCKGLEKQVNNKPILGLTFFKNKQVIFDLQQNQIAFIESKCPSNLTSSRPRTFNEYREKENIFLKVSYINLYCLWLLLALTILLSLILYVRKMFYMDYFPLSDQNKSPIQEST

[2] = target: GFP-tagged Plasmepsin V (PmV-GFP), P. falciparum clone DC6 (Plasmodium falciparum); remark: listed apart in the source
[3] = target: GFP-tagged Plasmepsin V (PmV-GFP), P. falciparum clone DC6 (Plasmodium falciparum); remark: listed apart in the source

Binder	IC50 of inhibition of PmV cleavage of the fluorogenic HRPII-PExEl substrate [1] [nM]	also measured
RLLYEA [Compound 37b (R epimer of Compound 37)]	1.57	–
RLLAQA [Compound 8b (R epimer of Compound 8, glutamine in P2')]	188	–
Octanoyl-RLLYEA (not fully specified) [Compound 37a (octanoyl group at the N-terminus of Compound 7a)]	–	IC50 of inhibition of PmV cleavage of the fluorogenic HRPII-PExEl substrate [2]: 0.023 nM
{Biotin-GABA-GABA}-RLLAEA (also: hydroxyethylamino (HEA) isostere replaces P1 Leu-P1' Ala peptide bond) [Compound 36, a biotinylated version of Compound 1]	–	in vitro inhibitory activity (IC50) against PmV cleavage of the fluorogenic HRPII-PExEl substrate [3]: 42 nM
